According to the supplement of paper PMC7877785:
± gives the uncertainty stated by the source.

Assay: self-splicing fitness, log relative to wild type (ln ratio); higher = more splicing; Tetrahymena group I intron in knt gene, E. coli kanamycin selection, DiMSum; sequences stand for … in CUCUCU…GGAGGGAAAAGUUAUCAGGCAUGCACCUGGUAGCUAGUCUUUAAACCAAUAGAUUGCAUCGGUUUAAAAGGCAAGACCGUCAAAUUGCGGGAAAGGGGUCAACAGCCGUUCAGUACCAAGUCUCAGGGGAAACUUUGAGAUGGCCUUGCAAAGGGUAUGGUAAUAAGCUGACGGACAUGGUCCUAACCACGCAGCCAAGUCCUAAGUCAACAGAUCUUCUGUUGAUAUGGAUGCAGUUCACAGACUAAAUGUCGGUCGGGGAAGAUGUAUUCUUCUCAUAAGAUAUAGUCGGACCUCUCCUUAAUGGGAGCUAGCGGAUGAAGUGAUGCAACACUGGAGCCGCUGGGAACUAAUUUGUAUGCGAAAGUAUAUUGAUUAGUUUUGGAGUACUCGUGGUCG
In short: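 A randomised library covering all eight P1ex-region intron nucleotides was built with the intron in the knt kanamycin-resistance gene on pET-22b(+) and held in E. coli BL21(DE3). Cells were grown overnight at 37°C or 30°C on LB agar, with or without 25 μg/mL kanamycin, plus 100 μg/mL carbenicillin, 50 μM IPTG and 0.2% rhamnose, and pooled colonies were amplicon-sequenced on an Illumina HiSeq 2500. DiMSum fitness is the error-weighted combination of wild-type-normalised replicate fold changes, kanamycin versus none.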

Sequence | self-splicing fitness (ln) (30 °C) | self-splicing fitness (ln) (37 °C)
GGUCAGCAAUAUUACGAGAG | -3.37 ± 0.42 | -1.16 ± 0.25
GGUCAGCAAUAUUACGCACG | 0.0799 ± 0.1 | 0.287 ± 0.13
GGUCAGCAAUAUUACGCAGU | -1.33 ± 0.11 | -0.639 ± 0.13
GGUCAGCAAUAUUACGCAUA | -0.703 ± 0.088 | -0.214 ± 0.11
GGUCAGCAAUAUUACGCCGG | -2.68 ± 0.27 | -2.79 ± 0.3
GGUCAGCAAUAUUACGCCUC | -0.643 ± 0.12 | 0.0345 ± 0.14
GGUCAGCAAUAUUACGCGGG |  | -2.61 ± 0.28
GGUCAGCAAUAUUACGGCGC | -0.127 ± 0.12 | -0.0173 ± 0.14
GGUCAGCAAUAUUACGGGAU | -1.12 ± 0.16 | -2.85 ± 0.38
GGUCAGCAAUAUUACGGGGA | -1.25 ± 0.17 | -1.87 ± 0.2
GGUCAGCAAUAUUACGUAAC | -1.32 ± 0.14 | -0.628 ± 0.16
GGUCAGCAAUAUUACGUAAG | -1.87 ± 0.15 | -0.22 ± 0.18
GGUCAGCAAUAUUACGUAUC | -0.892 ± 0.078 | -0.138 ± 0.1
GGUCAGCAAUAUUACGUGCA | 0.0844 ± 0.11 | 0.539 ± 0.15
GGUCAGCAAUAUUACGUGCC | -2.9 ± 0.23 | -0.811 ± 0.26
GGUCAGCAAUAUUACGUGUU | -0.208 ± 0.047 | 0.537 ± 0.063
GGUCAGCAAUAUUACGUUAG | -2.17 ± 0.14 | -1.68 ± 0.18
GGUCAGCAAUAUUACGUUGC | -1.98 ± 0.098 | -0.999 ± 0.1
GGUGAGCAAUAUUACGAACC |  | -2.72 ± 0.22
GGUGAGCAAUAUUACGCGCA | -0.814 ± 0.21 | -0.146 ± 0.21
GGUGAGCAAUAUUACGGAGU | -3.25 ± 0.26 | -1.9 ± 0.19
GGUGAGCAAUAUUACGGAUA | -2.24 ± 0.18 | -1.88 ± 0.22
GGUGAGCAAUAUUACGGAUU | -0.567 ± 0.14 | -1.26 ± 0.19
GGUGAGCAAUAUUACGGCAU | -1.66 ± 0.25 | -1.05 ± 0.28

Sequence | self-splicing fitness (ln) (30 °C) | self-splicing fitness (ln) (37 °C)
GGUGAGCAAUAUUACGGCCU | -2.79 ± 0.26 | -2.96 ± 0.43
GGUGAGCAAUAUUACGGGAU | -3.28 ± 0.41 | -2.62 ± 0.34
GGUGAGCAAUAUUACGGUAA |  | -2.66 ± 0.4
GGUGAGCAAUAUUACGGUAG | -2.67 ± 0.22 | -2.59 ± 0.33
GGUGAGCAAUAUUACGGUAU | -3.49 ± 0.23 | -3 ± 0.4
GGUGAGCAAUAUUACGGUCU | -0.893 ± 0.14 | -0.768 ± 0.2
GGUGAGCAAUAUUACGUAAG | -3.05 ± 0.45 | -2.22 ± 0.28
GGUGAGCAAUAUUACGUAGC | -2.64 ± 0.3 | -1.27 ± 0.29
GGUGAGCAAUAUUACGUCAC | -3.1 ± 0.34 | 
GGUGAGCAAUAUUACGUCUC | -1.28 ± 0.19 | -1.61 ± 0.22
GGUGAGCAAUAUUACGUCUU | -0.609 ± 0.2 | 0.239 ± 0.25
GGUGAGCAAUAUUACGUGGA | -2.86 ± 0.36 | -3.3 ± 0.28
GGUGAGCAAUAUUACGUUCG | -2.65 ± 0.37 | -2.44 ± 0.32
GGUGAGCAAUAUUACGUUUU | -2.94 ± 0.26 | -1.6 ± 0.23
GGUUAGCAAUAUUACGAAAU | -1.45 ± 0.11 | -0.492 ± 0.14
GGUUAGCAAUAUUACGACAA | 0.354 ± 0.25 | 0.974 ± 0.3
GGUUAGCAAUAUUACGACCG | -0.946 ± 0.25 | 1.43 ± 0.36
GGUUAGCAAUAUUACGCAGG | -3.31 ± 0.24 | -2.05 ± 0.2
GGUUAGCAAUAUUACGCAUU | -0.941 ± 0.075 | -0.185 ± 0.086
GGUUAGCAAUAUUACGCGAA | -0.818 ± 0.25 | -0.0649 ± 0.35
GGUUAGCAAUAUUACGGAAC | -1.48 ± 0.3 | -0.799 ± 0.46
GGUUAGCAAUAUUACGGAUA | -1.23 ± 0.14 | 0.704 ± 0.17
GGUUAGCAAUAUUACGGAUC | -1.53 ± 0.18 | 0.131 ± 0.28
GGUUAGCAAUAUUACGGCGG | -2.05 ± 0.15 | -1.68 ± 0.16

Sequence | self-splicing fitness (ln) (30 °C) | self-splicing fitness (ln) (37 °C)
GGUUAGCAAUAUUACGGGAC | -3 ± 0.3 | -1.44 ± 0.21
GGUUAGCAAUAUUACGGGGG |  | -2.37 ± 0.44
GGUUAGCAAUAUUACGGUCG | -0.323 ± 0.13 | -0.0539 ± 0.18
GGUUAGCAAUAUUACGUAAU | -2.05 ± 0.22 | -0.725 ± 0.21
GGUUAGCAAUAUUACGUCAU | -1.03 ± 0.21 | 0.277 ± 0.21
GGUUAGCAAUAUUACGUCCA | -1.17 ± 0.3 | -0.199 ± 0.34
GGUUAGCAAUAUUACGUGAC | -2.98 ± 0.28 | -2.33 ± 0.34
GGUUAGCAAUAUUACGUGCU | -2.76 ± 0.46 | -2.35 ± 0.3
GGUUAGCAAUAUUACGUGUU | -1.43 ± 0.096 | -0.323 ± 0.098
GUAAAGCAAUAUUACGACCA | -0.123 ± 0.093 | 0.27 ± 0.13
GUAAAGCAAUAUUACGACGG | -3.85 ± 0.29 | -2.28 ± 0.23
GUAAAGCAAUAUUACGACUC | 0.441 ± 0.1 | 1.06 ± 0.15
GUAAAGCAAUAUUACGAUCU | 0.147 ± 0.057 | 0.161 ± 0.069
GUAAAGCAAUAUUACGAUUA | 0.307 ± 0.087 | 0.518 ± 0.1
GUAAAGCAAUAUUACGCCUA | -0.413 ± 0.14 | 0.493 ± 0.19
GUAAAGCAAUAUUACGCGCA | 0.459 ± 0.16 | -0.0064 ± 0.17
GUAAAGCAAUAUUACGCGCG | -0.817 ± 0.14 | -0.615 ± 0.24
GUAAAGCAAUAUUACGCGUU | -1.65 ± 0.088 | -0.906 ± 0.099
GUAAAGCAAUAUUACGGCGC | 0.572 ± 0.13 | -0.000459 ± 0.14
GUAAAGCAAUAUUACGGCUA | 0.4 ± 0.052 | 0.518 ± 0.075
GUAAAGCAAUAUUACGGGUC | -1.78 ± 0.1 | -2.99 ± 0.12
GUAAAGCAAUAUUACGUAUU | -1.87 ± 0.076 | -1.69 ± 0.1
GUAAAGCAAUAUUACGUCUG | -1.56 ± 0.11 | 0.0989 ± 0.11
GUAAAGCAAUAUUACGUCUU | -0.455 ± 0.1 | 0.291 ± 0.12

Sequence | self-splicing fitness (ln) (30 °C) | self-splicing fitness (ln) (37 °C)
GUAAAGCAAUAUUACGUGUC | -1.85 ± 0.06 | -1.14 ± 0.079
GUAAAGCAAUAUUACGUUCU | -0.888 ± 0.05 | -0.135 ± 0.071
GUACAGCAAUAUUACGACAC | -0.333 ± 0.099 | 0.291 ± 0.11
GUACAGCAAUAUUACGACGA | -1.54 ± 0.14 | -1.07 ± 0.12
GUACAGCAAUAUUACGAGCU | -2.18 ± 0.15 | -1.51 ± 0.15
GUACAGCAAUAUUACGAUUU | -1.28 ± 0.11 | -0.49 ± 0.089
GUACAGCAAUAUUACGCAGC | -2.41 ± 0.17 | -2.33 ± 0.23
GUACAGCAAUAUUACGCGUA | -3.44 ± 0.32 | -1.71 ± 0.24
GUACAGCAAUAUUACGCUGG | -2.55 ± 0.13 | -0.491 ± 0.12
GUACAGCAAUAUUACGGAGA | -3.87 ± 0.35 | -2.81 ± 0.21
GUACAGCAAUAUUACGGCCA | -0.539 ± 0.17 | -1.13 ± 0.17
GUACAGCAAUAUUACGGCUC | 0.189 ± 0.083 | 1.05 ± 0.097
GUACAGCAAUAUUACGGCUU | -0.512 ± 0.08 | 0.22 ± 0.09
GUACAGCAAUAUUACGGUAG | -1.31 ± 0.062 | -0.303 ± 0.068
GUAGAGCAAUAUUACGAAGC | -2.62 ± 0.24 | -0.723 ± 0.26
GUAGAGCAAUAUUACGAGCA | -0.443 ± 0.17 | -0.601 ± 0.22
GUAGAGCAAUAUUACGAGUC | -2.19 ± 0.17 | -1.47 ± 0.24
GUAGAGCAAUAUUACGAGUU | -2.39 ± 0.2 | -1.85 ± 0.2
GUAGAGCAAUAUUACGCAUG | -1.94 ± 0.13 | -0.699 ± 0.19
GUAGAGCAAUAUUACGCCCA | -1.56 ± 0.2 | -0.471 ± 0.25
GUAGAGCAAUAUUACGCCCC | -1.39 ± 0.19 | -0.63 ± 0.28
GUAGAGCAAUAUUACGCCUG | -1.21 ± 0.31 | -0.594 ± 0.32
GUAGAGCAAUAUUACGCGGC | -3.37 ± 0.2 | -2.07 ± 0.18
GUAGAGCAAUAUUACGCGUU | -0.368 ± 0.065 | -0.909 ± 0.11
